10 molecules from PMC8583167 (Oncoimmunology, 2021) can be followed below.

Substitutions are numbered along the chain they refer to.

B1: anti-mCS1 sdAb1, untagged (VHH)
VHH: QVQLQESGGGLVQPGGSLRLSCAASGFTFSSTAMSWARQAPGKGLEWVSSIYSDGSTSYADSMKGRSTISRDNAKNTVYLQMNSLKPEDTAVYYCAIGDTGWGRVGQGTQVTVSS
B2: sdAb3 (VHH)
VHH: QVQLQESGGGLVQPGGSLRLSCAASGSIFSIYAMDWYRQAPGKQRELVARITSDGSTNYADSVKGRFTISRDNAKNAVYLQMNSLKPEDTAVYYCVAEQSLGEHTLRDWGQGTQVTVSS
B3: sdAb4 (VHH)
VHH: B2 VHH with L11F, I31V, D35G, R50A, S53R, D54G, T57A
B4: sdAb10 (VHH)
VHH: QVQLQESGGGLVQPGGSLRLSCAASGSIFSIYAMGWYRQAPGKQRELVAGITSGGSTHYADSVKGRFTISRDNAKNSVYLQMNSLKPEDTAVYYCNSDLDPPSGTYYPALWSWGQGTQVTVSS
B5: sdAb9 (VHH)
VHH: QVQLQESGGGLVQPGGSLRLSCAASGSIFSILSMGWYRQAPGKQRELVASITNGGSTNYADSVKGRFTIFRDNAKNTVDLQMNSLKPEDTAVYYCNARPPRADLWGQGTQVTVSS
B6: sdAb5 (VHH)
VHH: QVQLQESGGGLVQPGGSLRLSCAVSRSIFSFYAMGWYRQAPGKERELVARIISGGSTNYADSVKGRFTIARDNAKNTVYLQMNSLKPEDTAVYYCVAEQFLNDFTLRDWGQGTQVTVSS
B7: sdAb6 (VHH)
VHH: QVQLQESGGGLVQPGGSLRLSCAASGSIFSILAMGWYRQAPGKQRELVASVTNGGSTNYADSVKGRFTISRDNAKNTVYLQMNSLKPEDTAVYYCNVRPYSDYDSWGHGTQVTVSS
B8: sdAb7 (VHH)
VHH: B7 VHH with H108Q
B9: sdAb8 (VHH)
VHH: B7 VHH with S62F, A74V, S105Y, H108Q
B10: sdAb2 (VHH)
VHH: QVQLQESGGGLVQPGGSLKLSCAASGSIASIYAMGWYRQAPGKQRELVATISSDGSTNYADSVKGRFTISRNNTDNTVCLQMNSLKPEDTALYTCITEQFLGDHTLRDWGQGTQVTVSS

T1 sequence (Q8BHK6 23-333): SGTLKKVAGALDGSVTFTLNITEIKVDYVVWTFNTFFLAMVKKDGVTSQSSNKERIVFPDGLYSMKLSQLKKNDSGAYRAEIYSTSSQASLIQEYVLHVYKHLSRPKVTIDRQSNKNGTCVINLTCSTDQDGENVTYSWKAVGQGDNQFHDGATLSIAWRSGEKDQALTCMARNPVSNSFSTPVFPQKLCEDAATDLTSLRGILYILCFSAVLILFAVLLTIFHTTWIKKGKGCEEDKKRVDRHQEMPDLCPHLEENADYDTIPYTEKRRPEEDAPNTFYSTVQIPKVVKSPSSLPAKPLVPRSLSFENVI

The first assay addresses T1, mCS1-His (Mus musculus, strain , UniProt Q8BHK6). Put plainly: SPR.
In the case of B1, the Kd came out at 25 nM. That is a double-digit nanomolar value.

A further assay concerns the target T1, mCS1-His.
Assay: not given
For B2, the binding result is reported as “binds”.
Still for that read-out and setting: the entry for B3 is “binds”.
On the same count and under the same terms, the entry for B4 is “binds”; for B5 it is “binds”.
B6: the binding result is “binds”.
B7: the binding result is on record as “binds”.
Regarding B8, the binding result is “binds”.
B9: the binding result was “binds”.
The same measure, in the same setting: under B10 stands “binds”.

The Kd is the concentration at which binding is half-saturated. High values mean a looser complex, low ones a tighter complex.
